Entries after “also recorded” stand apart in the source; their conditions may differ. Where two headings read alike, the source gives them in different places.
Key:
HUVEC = assay: Endothelial cell tube (cord) formation on Matrigel; format: cell-based, human
Procedure: (§1) Cord formation assay of HUVEC in Matrigel™ (upper row). Cells in exponential growth phase were treated overnight with the indicated concentrations of EphB4 extracellular domain (ECD) prior to plating on Matrigel™. Cells were trypsinized and plated (1×10^5 cells/well) in a 24-well plate containing 0.5 ml Matrigel™. Shown are representative 20× phase contrast fields of cord formation after 8 hr plating on Matrigel™ in the continued presence of the test compounds as shown. Original magnification 200×. KS-SLK cells treated in a similar manner (middle row) in a cord formation assay on Matrigel™. […] After 7 days the plugs were removed, sectioned and stained with H&E to visualize cells migrating into the matrix.
Matrigel (60 μl of 10 mg/ml; Collaborative Lab #35423) is placed in each well of an ice-cold 96-well plate. The plate is allowed to sit at room temperature for 15 minutes then incubated at 37° C. for 30 minutes to permit the matrigel to polymerize. In the mean time, HUVECs are prepared in EGM-2 (Clonetic #CC3162) at a concentration of 2×10^5 cells/ml. The test compound is prepared at 2× the desired concentration (5 concentration levels) in the same medium. Cells (500 μl) and 2× drug (500 μl) is mixed and 200 μl of this suspension are placed in duplicate on the polymerized matrigel. After 24 h incubation, triplicate pictures are taken for each concentration using a Bioquant Image Analysis system. Drug effect (IC50) is assessed compared to untreated controls by measuring the length of cords formed and number of junctions.
Matrigel (60 μl of 10 mg/ml; Collaborative Lab, Cat. No. 35423) was placed in each well of an ice-cold 96-well plate. The plate was allowed to sit at room temperature for 15 minutes then incubated at 37° C. for 30 minutes to permit Matrigel to polymerize. In the mean time, human umbilical vein endothelial cells were prepared in EGM-2 (Clonetic, Cat. No. CC3162) at a concentration of 2×10^5 cells/ml. The test protein was prepared at 2× the desired concentration (5 concentration levels) in the same medium. Cells (500 μl) and 2× protein (500 μl) were mixed and 200 μl of this suspension were placed in duplicate on the polymerized Matrigel. After 24 h incubation, triplicate pictures were taken for each concentration using a Bioquant Image Analysis system. Protein addition effect (IC50) was assessed compared to untreated controls by measuring the length of cords formed and number of junctions.

SCC15 tumors [1] = assay: SCC15 tumor growth and histology in nude mice, soluble EphB4; format: in vivo, mouse; conditions: for SCC15 tumor growth: Balb/C nu/nu mice
Procedure: The same model was used to determine the effects of soluble EphB4 in vivo. SCC15 tumors implanted subcutaneously, pre-incubated with matrigel and with or w/o growth factors, as well as implanted sc alone, and mice treated sc or ip daily with 1-5 μg of soluble EphB4 were carried out.
Subcutaneously inject logarithmically growing SCC15, head and neck squamous cell carcinoma cell line, at 5×10^6 cell density; with or without EphB4 ECD in the presence or absence of human bFGF, into athymic Balb/c nude mice, along with Matrigel (BD Bioscience) synthetic basement membrane (1:1 v/v), and examine tumors within 2 weeks. […] There was no difference in body weight between the groups. Immunohistochemical examination of cross-sections of resected tumors and TUNEL-positive apoptosis or necrosis, CD34 immunostaining, and BrdU proliferation rate will be performed, after deparaffinized, rehydrated, and quenched for endogenous peroxidase activity, and after 10 min permeabilization with proteinase K. Quantitative assessment of vascular densities will also be performed. Local intratumoral delivery or IV delivery of EphB4 ECD will also be performed twice a week.
(§2) 30 athymic nude mice, BALB/c (nu/nu), were each injected with 1×10^6 B16 melanoma cells with 0.1 ml PBS mixed with 0.1 ml matrigel or 1.5×10^6 SCC15 cells resuspended in 200 μl of DMEM serum-free medium and injected subcutaneously on day 0 on the right shoulder region of mice. Proteins were injected intravenously or subcutaneously, around the tumor beginning on day 1 at a loading dose of 4 μg/mg, with weekly injections of 2 ug/mg. (10 μg/g, 50 μg/kg/day), and at 2 weeks post-inoculation. Mice are sacrificed on Day 14. Control mice received PBS 50 μl each day.
All animals were treated under protocols approved by the institutional animal care committees. Cancer cells (5×10^6) were subcutaneously inoculated into the dorsal skin of nude mice. When the tumor had grown to a size of about 100 mm^3 (usually it took 1[…]2 days), sEphB4 was either intraperitoneally or subcutaneously injected once/day, and tumorigenesis was monitored for 2 weeks. Tumor volume was calculated according to the formula a^2xb, where a and b are the smallest and largest diameters, respectively. A Student's t test was used to compare tumor volumes, with P<0.05 being considered significant.
Tumors were fixed in 4% formaldehyde, embedded in paraffin, sectioned by 5 μm, and stained with hematoxylin[…]eosin. Vessel density was semi-quantitated using a computer-based image analyzer (five fields per section from three mice in each group).

B16 (melanoma) = assay: B16 melanoma tumor in mice, soluble EphB4; format: in vivo, mouse
Procedure: (§3) Tumors were injected premixed with Matrigel plus growth factors and soluble EphB4 subcutaneously. After 10 to 14 days, the mice were injected intravenously with FITC-lectin (green) to assess blood vessel perfusion.
as §2

MCF-7 (breast carcinoma) = assay: MCF-7 tumor in mice, soluble EphB4; format: in vivo, mouse
Procedure: as §3

HUVECS = assay: MTS cytotoxicity assay; format: cell-based, human
EphB4 receptor = EphB4 receptor phosphorylation in HUVECs (Western blot); format: cell-based, human; conditions: serum-starved HUVECs, in the presence of EphrinB2Fc
Source text: We examined EphB4 receptor phosphorylation in HUVECs by performing Western blot analyses with lysates from soluble EphB4-treated cells and antibodies against phosphor-tyrosine. […] Ephrin B2Fc without the soluble EphB4 protein induced phosphorylation of EphB4 receptor (FIG. 22).

HNSCC-15 cells = assay: Cell cycle FACS of HNSCC cells with soluble EphB4ECD; format: cell-based, human
KS-SLK cells = assay: KS-SLK cord formation on Matrigel; format: cell-based, human
Procedure: as §1

SCC15 tumors [2] = assay: SCC15 tumor growth and histology in nude mice, soluble EphB4; format: in vivo, mouse; conditions: treated vs control tumors, CD31

B1: B4ECv3: soluble extracellular domain derivative of human EphB4, SEQ ID NO:1 (protein)
chain: MELRVLLCWASLAAALEETLLNTKLETADLKWVTFPQVDGQWEELSGLDEEQHSVRTYEVCEVQRAPGQAHWLRTGWVPRRGAVHVYATLRFTMLECLSLPRAGRSCKETFTVFYYESDADTATALTPAWMENPYIKVDTVAAEHLTRKRPGAEATGKVNVKTLRLGPLSKAGFYLAFQDQGACMALLSLHLFYKKCAQLTVNLTRFPETVPRELVVPVAGSCVVDAVPAPGPSPSLYCREDGQWAEQPVTGCSCAPGFEAAEGNTKCRACAQGTFKPLSGEGSCQPCPANSHSNTIGSAVCQCRVGYFRARTDPRGAPCTTPPSAPRSVVSRLNGSSLHLEWSAPLESGGREDLTYALRCRECRPGGSCAPCGGDLTFDPGPRDLVEPWVVVRGLRPDFTYTFEVTALNGVSSLATGPVPFEPVNVTTDREVPPAVSDIRVTRSSPSSLSLAWAVPRAPSGAWLDYEVKYHEKGAEGPSSVRFLKTSENRAELRGLKRGASYLVQVRARSEAGYGPFGQEHHSQTQLDESEGWREQGSKRAILQIEGKPIPNPLLGLDSTRTGHHHHHH
modifications: Recombinant B4ECv3 protein
For B1, the “endothelial cell tube / tubule / cord formation” value (HUVEC) was “inhibition”, the “endothelial cell tube / tubule / cord formation” value (HUVEC; listed as B4v3) was “strong inhibition” and the SCC15 tumor growth (SCC15 tumors [1]) was “inhibits”. The “in vivo tumor growth” value (B16 (melanoma); B16 co-injected with matrigel and growth factors) was “inhibits” and the “in vivo tumor growth” value (MCF-7 (breast carcinoma); MCF-7 co-injected with matrigel and growth factors) was “inhibits”.

B2: soluble EphB4: soluble EphB4 extracellular domain protein; exact construct not stated at the results (protein)
chain: LEETLLNTKLETADLKWVTFPQVDGQWEELSGLDEEQHSVRTYEVCDVQRAPGQAHWLRTGWVPRRGAVHVYATLRFTMLECLSLPRAGRSCKETFTVFYYESDADTATALTPAWMENPYIKVDTVAAEHLTRKRPGAEATGKVNVKTLRLGPLSKAGFYLAFQDQGACMALLSLHLFYKKCAQLTVNLTRFPETVPRELVVPVAGSCVVDAVPAPGPSPSLYCREDGQWAEQPVTGCSCAPGFEAAEGNTKCRACAQGTFKPLSGEGSCQPCPANSHSNTIGSAVCQCRVGYFRARTDPRGAPCTTPPSAPRSVVSRLNGSSLHLEWSAPLESGGREDLTYALRCRECRPGGSCAPCGGDLTFDPGPRDLVEPWVVVRGLRPDFTYTFEVTALNGVSSLATGPVPFEPVNVTTDREVPPAVSDIRVTRSSPSSLSLAWAVPRAPSGAVLDYEVKYHEKGAEGPSSVRFLKTSENRAELRGLKRGASYLVQVRARSEAGYGPFGQEHHSQTQLDESEGWREQLA
In the case of B2, the “endothelial cell tube / tubule / cord formation” value (HUVEC) is reported as “significantly inhibited”, the “endothelial cell tube / tubule / cord formation” value (HUVEC; listed as EphB4-ECD) is reported as “inhibits” and the cytotoxic effect (HUVECS) is reported as “no detectable cytotoxic effect”. For the same molecule, the “level of phosphorylated EphB4” value (EphB4 receptor) was “rapid and transient decrease”, the SCC15 tumor growth (SCC15 tumors [1]) was “inhibits; also recorded: reduced growth rate” and the tumor angiogenesis (SCC15 tumors [1]; SCC15, premixed with Matrigel plus growth factors, 10 to 14 days, FITC-lectin) was “marked inhibition”. The “Tumor volumes versus vehicle groups” value (SCC15 tumors [1]; co-injected with Matrigel, presence and absence of growth factor, within 2 weeks) was “three-fold smaller”, the “Fibrin deposition in and around blood vessels” value (SCC15 tumors [1]; inner viable rim and central necrotic core, Masson's Trichrome) was “increased” and the “effects on the endothelium in normal tissues” value (SCC15 tumors [1]; lungs, liver and kidneys) was “no such effects”. The “Necrosis, percentage of tumor section area” value (SCC15 tumors [1]; treated vs control, p<0.02) was “more extensive”, the body weight (SCC15 tumors [1]; tumor-bearing mice) was “no significant effect” and the tolerability in vivo (SCC15 tumors [1]; tumor-bearing mice, general well-being) was “well tolerated”. For the same molecule, the body weight (SCC15 tumors [1]; tumor-bearing mice, listed as EphB4 ECD) was “no difference”, the tumor angiogenesis (B16 (melanoma); B16, premixed with Matrigel plus growth factors, 10 to 14 days) was “marked inhibition” and the tumor angiogenesis (MCF-7 (breast carcinoma); MCF-7, premixed with Matrigel plus growth factors, 10 to 14 days) was “marked inhibition”. The cell cycle distribution (HNSCC-15 cells) was “accumulation in subG0/G1 and S/G2 phases”, the cord formation (KS-SLK cells) was “inhibits” and the “Microvessel density in the outer viable rim of tumor cells” value (SCC15 tumors [2]) was “similar”.

— patent US9533026B2, “Polypeptide compounds for inhibiting angiogenesis and tumor growth” (VasGene Therapeutics, Inc., priority 2004, dated 2017)
